Reference: PMC3248442 (2011)

Target: T1, integrin αVβ5 (Homo sapiens, UniProt P06756)
T1 chain 1: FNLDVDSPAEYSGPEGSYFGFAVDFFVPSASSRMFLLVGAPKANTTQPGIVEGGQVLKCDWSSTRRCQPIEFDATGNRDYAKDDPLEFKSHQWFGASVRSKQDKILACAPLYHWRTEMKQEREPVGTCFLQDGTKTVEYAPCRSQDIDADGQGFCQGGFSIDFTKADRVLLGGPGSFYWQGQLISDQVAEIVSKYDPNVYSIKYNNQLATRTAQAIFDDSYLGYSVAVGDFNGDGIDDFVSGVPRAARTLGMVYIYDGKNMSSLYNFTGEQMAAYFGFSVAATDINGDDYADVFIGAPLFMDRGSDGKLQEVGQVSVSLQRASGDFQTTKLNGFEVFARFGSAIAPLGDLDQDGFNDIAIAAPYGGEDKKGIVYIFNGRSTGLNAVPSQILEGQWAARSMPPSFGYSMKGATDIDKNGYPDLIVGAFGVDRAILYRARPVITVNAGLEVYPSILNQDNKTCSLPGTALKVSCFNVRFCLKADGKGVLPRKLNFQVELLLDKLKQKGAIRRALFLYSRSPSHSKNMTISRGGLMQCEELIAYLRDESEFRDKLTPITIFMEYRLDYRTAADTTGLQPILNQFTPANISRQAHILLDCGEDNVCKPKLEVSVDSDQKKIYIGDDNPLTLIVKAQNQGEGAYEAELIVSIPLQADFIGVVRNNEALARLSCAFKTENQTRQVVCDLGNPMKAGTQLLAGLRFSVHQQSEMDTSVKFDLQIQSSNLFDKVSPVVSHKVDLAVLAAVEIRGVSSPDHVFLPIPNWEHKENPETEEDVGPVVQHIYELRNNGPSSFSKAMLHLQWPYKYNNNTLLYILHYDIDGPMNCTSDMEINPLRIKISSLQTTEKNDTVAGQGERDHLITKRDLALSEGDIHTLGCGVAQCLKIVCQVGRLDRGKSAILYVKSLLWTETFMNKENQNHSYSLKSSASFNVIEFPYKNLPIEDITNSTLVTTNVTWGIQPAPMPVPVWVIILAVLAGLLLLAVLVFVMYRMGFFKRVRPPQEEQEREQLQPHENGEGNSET
T1 chain 2: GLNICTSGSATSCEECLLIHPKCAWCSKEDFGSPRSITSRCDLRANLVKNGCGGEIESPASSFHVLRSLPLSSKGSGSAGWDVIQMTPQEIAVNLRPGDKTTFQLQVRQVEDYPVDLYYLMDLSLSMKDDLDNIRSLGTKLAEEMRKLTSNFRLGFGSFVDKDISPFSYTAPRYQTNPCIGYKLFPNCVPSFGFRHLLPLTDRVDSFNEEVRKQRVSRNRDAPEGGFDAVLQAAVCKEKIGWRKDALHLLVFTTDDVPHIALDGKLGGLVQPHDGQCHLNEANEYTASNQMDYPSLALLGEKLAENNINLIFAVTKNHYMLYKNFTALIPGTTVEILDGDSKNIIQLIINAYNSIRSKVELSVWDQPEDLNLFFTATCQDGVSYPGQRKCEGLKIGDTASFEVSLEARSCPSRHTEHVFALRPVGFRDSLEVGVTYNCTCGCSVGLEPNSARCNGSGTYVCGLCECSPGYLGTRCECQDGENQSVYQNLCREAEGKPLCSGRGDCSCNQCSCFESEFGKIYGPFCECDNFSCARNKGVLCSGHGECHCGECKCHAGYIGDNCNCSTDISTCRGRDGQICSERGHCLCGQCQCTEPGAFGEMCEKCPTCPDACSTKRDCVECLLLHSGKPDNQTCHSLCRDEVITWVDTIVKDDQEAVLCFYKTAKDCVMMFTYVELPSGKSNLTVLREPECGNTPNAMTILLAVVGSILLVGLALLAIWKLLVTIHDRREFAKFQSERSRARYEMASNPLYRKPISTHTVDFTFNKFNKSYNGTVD
Assay: solid-phase binding assay (fluorescent immunoassay)

B1: PilY1 532-1163 (protein)
chain: AGDLTRYSLTTQDKATVQTKLWSAQSILDAMPNGGAGRKIMMAGSGTSGLKEFTWGSLSADQQRQLNRDPDRNDVADTKGQDRVAFLRGDRSKENSDNFRTRNSILGDIINSSPATVGKAQYLTYLAQPIEPSGNYSTFAEAQKTRAPRVYVGANDGMLHGFDTDGNETFAFIPSAVFEKLHKLTARGYQGGAHQFYVDGSPVVADAFFGGAWHTVLIGSLRAGGKGLFALDVTDPANIKLLWEIGVDQEPDLGYSFPKPTVARLHNGKWAVVTGNGYSSLNDKAALLIIDLETGAITRKLEVTGRTGVPNGLSSPRLADNNSDGVADYAYAGDLQGNLWRFDLIAGKVNQDDPFSRANDGPAVASSFRVSFGGQPLYSAVDSAGAAQAITAAPSLVRHPTRKGYIVIFGTGKYFENADARADTSRAQTLYGIWDQQTKGEAAGSTPRLTRGNLQQQTLDLQADSTFASTARTIRIASQNPVNWLNNDGSTKQSGWYLDFMVNGTLKGEMLIEDMIAIGQVVLLQTITPNDDPCADGASNWTYGLDPYTGGRTSFTVFDLARQGVVDSKSDYSYNKQNVAVSGTEQKGLGGLTLSTNEQGNPEVCSSGECLTVNPGPNTRGRQNWRPIEGKN
  Kd: 164 nM
